Measured values: publication PMC6140332

Target: T1, ERG (33-479) R367K (UniProt P11308 33-479, R367K)
T1 sequence: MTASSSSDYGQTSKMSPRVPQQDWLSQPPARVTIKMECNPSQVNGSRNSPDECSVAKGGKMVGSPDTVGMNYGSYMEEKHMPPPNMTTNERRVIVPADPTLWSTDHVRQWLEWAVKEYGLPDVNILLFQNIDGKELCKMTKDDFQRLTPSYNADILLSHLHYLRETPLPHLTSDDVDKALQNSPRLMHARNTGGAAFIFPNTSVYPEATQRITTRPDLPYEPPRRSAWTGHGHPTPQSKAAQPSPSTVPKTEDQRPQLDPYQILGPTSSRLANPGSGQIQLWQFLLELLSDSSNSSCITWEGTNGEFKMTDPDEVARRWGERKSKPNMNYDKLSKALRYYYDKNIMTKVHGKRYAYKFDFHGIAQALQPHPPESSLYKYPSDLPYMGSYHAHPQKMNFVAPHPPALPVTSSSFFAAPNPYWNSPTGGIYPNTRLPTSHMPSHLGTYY
Assay: EMSA

B1: IRD800-Py (polyomavirus enhancer probe) (dsDNA)
DNA 1: GATCTTTAAGCAGGAAGTGACTAACTGACCGCAGGTGGATC
DNA 2: GATCCACCTGCGGTCAGTTAGTCACTTCCTGCTTAAAGATC
  binding result: no binding
